# Measured values as given in patent publication US20140087995A1 (published 2014).
# Numbered stars: 1 amine (or outer) side, 2 acyl side, 3 side chain; on linkers, the order of the positions; unused ones are H or OH. Bridge positions count the residues as written; N and C are the ends. Side chains are listed from the residue outwards. Ends that are not written are not given here. * marks the point of attachment. C20 diacid = O=C(O)CCCCCCCCCCCCCCCCCCC(=O)*; γGlu = O=C(O)[C@H](CCC(=O)[*:2])N[*:1]
# T1: human calcitonin receptor (human, UniProt P30988 25-474)
# T1 sequence (looked up): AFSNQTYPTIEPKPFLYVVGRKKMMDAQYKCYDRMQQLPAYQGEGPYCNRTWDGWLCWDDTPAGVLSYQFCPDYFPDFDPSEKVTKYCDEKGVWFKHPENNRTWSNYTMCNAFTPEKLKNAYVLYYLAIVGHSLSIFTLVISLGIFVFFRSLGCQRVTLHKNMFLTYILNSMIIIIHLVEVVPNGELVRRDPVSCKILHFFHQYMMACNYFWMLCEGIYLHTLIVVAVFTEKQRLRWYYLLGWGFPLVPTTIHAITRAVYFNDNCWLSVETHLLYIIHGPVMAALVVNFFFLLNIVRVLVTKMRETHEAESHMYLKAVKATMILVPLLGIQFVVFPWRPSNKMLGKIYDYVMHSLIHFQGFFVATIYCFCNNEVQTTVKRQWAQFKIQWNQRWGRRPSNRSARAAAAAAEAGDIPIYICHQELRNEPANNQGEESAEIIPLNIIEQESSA
# Target: T1, human calcitonin receptor
# Test: cell-based or functional assay
row,Binder,hCTR funct. EC50 (pM)
1,K([γGlu-C20 diacid])CNTATCATQRLADFLRHSSPNFGAIPSSTNVGPETY-NH2 (disulfide 2-7; N-terminus assumed; SMILES CC[C@H](C)[C@H](NC(=O)[C@H](C)NC(=O)CNC(=O)[C@H](Cc1ccccc1)NC(=O)[C@H](CC(N)=O)NC(=O)[C@@H]1CCCN1C(=O)[C@H](CO)NC(=O)[C@H](CO)NC(=O)[C@H](Cc1c[nH]cn1)NC(=O)[C@H](CCCNC(=N)N)NC(=O)[C@H](CC(C)C)NC(=O)[C@H](Cc1ccccc1)NC(=O)[C@H](CC(=O)O)NC(=O)[C@H](C)NC(=O)[C@H](CC(C)C)NC(=O)[C@H](CCCNC(=N)N)NC(=O)[C@H](CCC(N)=O)NC(=O)[C@@H](NC(=O)[C@H](C)NC(=O)[C@@H]1CSSC[C@H](NC(=O)[C@@H](N)CCCCNC(=O)CC[C@H](NC(=O)CCCCCCCCCCCCCCCCCCC(=O)O)C(=O)O)C(=O)N[C@@H](CC(N)=O)C(=O)N[C@@H]([C@@H](C)O)C(=O)N[C@@H](C)C(=O)N[C@@H]([C@@H](C)O)C(=O)N1)[C@@H](C)O)C(=O)N1CCC[C@H]1C(=O)N[C@@H](CO)C(=O)N[C@@H](CO)C(=O)N[C@H](C(=O)N[C@@H](CC(N)=O)C(=O)N[C@H](C(=O)NCC(=O)N1CCC[C@H]1C(=O)N[C@@H](CCC(=O)O)C(=O)N[C@H](C(=O)N[C@@H](Cc1ccc(O)cc1)C(N)=O)[C@@H](C)O)C(C)C)[C@@H](C)O),1120 pM
2,K([γGlu-C20 diacid])CNTATCATQRLAEFLRHSSPNFGAIPSSTNVGSHTY-NH2 (disulfide 2-7; N-terminus assumed; SMILES CC[C@H](C)[C@H](NC(=O)[C@H](C)NC(=O)CNC(=O)[C@H](Cc1ccccc1)NC(=O)[C@H](CC(N)=O)NC(=O)[C@@H]1CCCN1C(=O)[C@H](CO)NC(=O)[C@H](CO)NC(=O)[C@H](Cc1c[nH]cn1)NC(=O)[C@H](CCCNC(=N)N)NC(=O)[C@H](CC(C)C)NC(=O)[C@H](Cc1ccccc1)NC(=O)[C@H](CCC(=O)O)NC(=O)[C@H](C)NC(=O)[C@H](CC(C)C)NC(=O)[C@H](CCCNC(=N)N)NC(=O)[C@H](CCC(N)=O)NC(=O)[C@@H](NC(=O)[C@H](C)NC(=O)[C@@H]1CSSC[C@H](NC(=O)[C@@H](N)CCCCNC(=O)CC[C@H](NC(=O)CCCCCCCCCCCCCCCCCCC(=O)O)C(=O)O)C(=O)N[C@@H](CC(N)=O)C(=O)N[C@@H]([C@@H](C)O)C(=O)N[C@@H](C)C(=O)N[C@@H]([C@@H](C)O)C(=O)N1)[C@@H](C)O)C(=O)N1CCC[C@H]1C(=O)N[C@@H](CO)C(=O)N[C@@H](CO)C(=O)N[C@H](C(=O)N[C@@H](CC(N)=O)C(=O)N[C@H](C(=O)NCC(=O)N[C@@H](CO)C(=O)N[C@@H](Cc1c[nH]cn1)C(=O)N[C@H](C(=O)N[C@@H](Cc1ccc(O)cc1)C(N)=O)[C@@H](C)O)C(C)C)[C@@H](C)O),5580 pM
3,K([γGlu-C20 diacid])CNTATCATQRLAEFLRHSSPNFGAIPSSTNVGPHTY-NH2 (disulfide 2-7),1450 pM
4,"K([γGlu-C20 diacid])CNTATCATQRLAEFLRHSSPNFGAIPSSTNVGHETY-NH2 (disulfide 2-7; N-terminus assumed; SMILES CC[C@H](C)[C@H](NC(=O)[C@H](C)NC(=O)CNC(=O)[C@H](Cc1ccccc1)NC(=O)[C@H](CC(N)=O)NC(=O)[C@@H]1CCCN1C(=O)[C@H](CO)NC(=O)[C@H](CO)NC(=O)[C@H](Cc1c[nH]cn1)NC(=O)[C@H](CCCNC(=N)N)NC(=O)[C@H](CC(C)C)NC(=O)[C@H](Cc1ccccc1)NC(=O)[C@H](CCC(=O)O)NC(=O)[C@H](C)NC(=O)[C@H](CC(C)C)NC(=O)[C@H](CCCNC(=N)N)NC(=O)[C@H](CCC(N)=O)NC(=O)[C@@H](NC(=O)[C@H](C)NC(=O)[C@@H]1CSSC[C@H](NC(=O)[C@@H](N)CCCCNC(=O)CC[C@H](NC(=O)CCCCCCCCCCCCCCCCCCC(=O)O)C(=O)O)C(=O)N[C@@H](CC(N)=O)C(=O)N[C@@H]([C@@H](C)O)C(=O)N[C@@H](C)C(=O)N[C@@H]([C@@H](C)O)C(=O)N1)[C@@H](C)O)C(=O)N1CCC[C@H]1C(=O)N[C@@H](CO)C(=O)N[C@@H](CO)C(=O)N[C@H](C(=O)N[C@@H](CC(N)=O)C(=O)N[C@H](C(=O)NCC(=O)N[C@@H](Cc1c[nH]cn1)C(=O)N[C@@H](CCC(=O)O)C(=O)N[C@H](C(=O)N[C@@H](Cc1ccc(O)cc1)C(N)=O)[C@@H](C)O)C(C)C)[C@@H](C)O, also called compound 107)",2540 pM

# The next lines start with the values.
row,hCTR funct. EC50 (pM),Binder
1,8660 pM,K([γGlu-γGlu-C20 diacid])CNTATCATQRLANFLRHSSPNFGAIPSSTPVGPRTY-NH2 (disulfide 2-7; N-terminus assumed; SMILES CC[C@H](C)[C@H](NC(=O)[C@H](C)NC(=O)CNC(=O)[C@H](Cc1ccccc1)NC(=O)[C@H](CC(N)=O)NC(=O)[C@@H]1CCCN1C(=O)[C@H](CO)NC(=O)[C@H](CO)NC(=O)[C@H](Cc1c[nH]cn1)NC(=O)[C@H](CCCNC(=N)N)NC(=O)[C@H](CC(C)C)NC(=O)[C@H](Cc1ccccc1)NC(=O)[C@H](CC(N)=O)NC(=O)[C@H](C)NC(=O)[C@H](CC(C)C)NC(=O)[C@H](CCCNC(=N)N)NC(=O)[C@H](CCC(N)=O)NC(=O)[C@@H](NC(=O)[C@H](C)NC(=O)[C@@H]1CSSC[C@H](NC(=O)[C@@H](N)CCCCNC(=O)CC[C@H](NC(=O)CC[C@H](NC(=O)CCCCCCCCCCCCCCCCCCC(=O)O)C(=O)O)C(=O)O)C(=O)N[C@@H](CC(N)=O)C(=O)N[C@@H]([C@@H](C)O)C(=O)N[C@@H](C)C(=O)N[C@@H]([C@@H](C)O)C(=O)N1)[C@@H](C)O)C(=O)N1CCC[C@H]1C(=O)N[C@@H](CO)C(=O)N[C@@H](CO)C(=O)N[C@H](C(=O)N1CCC[C@H]1C(=O)N[C@H](C(=O)NCC(=O)N1CCC[C@H]1C(=O)N[C@@H](CCCNC(=N)N)C(=O)N[C@H](C(=O)N[C@@H](Cc1ccc(O)cc1)C(N)=O)[C@@H](C)O)C(C)C)[C@@H](C)O)
2,2830 pM,K([γGlu-γGlu-C20 diacid])CNTATCATQRLAEFLRHSSPNFGAIPSSTNVGPHTY-NH2 (disulfide 2-7 (inferred))
3,102 pM,K([γGlu-γGlu-C20 diacid])CNTATCATQRLAEFLRHSSPNFGAIPSSTNVGPETP-NH2 (disulfide 2-7; N-terminus assumed; SMILES CC[C@H](C)[C@H](NC(=O)[C@H](C)NC(=O)CNC(=O)[C@H](Cc1ccccc1)NC(=O)[C@H](CC(N)=O)NC(=O)[C@@H]1CCCN1C(=O)[C@H](CO)NC(=O)[C@H](CO)NC(=O)[C@H](Cc1c[nH]cn1)NC(=O)[C@H](CCCNC(=N)N)NC(=O)[C@H](CC(C)C)NC(=O)[C@H](Cc1ccccc1)NC(=O)[C@H](CCC(=O)O)NC(=O)[C@H](C)NC(=O)[C@H](CC(C)C)NC(=O)[C@H](CCCNC(=N)N)NC(=O)[C@H](CCC(N)=O)NC(=O)[C@@H](NC(=O)[C@H](C)NC(=O)[C@@H]1CSSC[C@H](NC(=O)[C@@H](N)CCCCNC(=O)CC[C@H](NC(=O)CC[C@H](NC(=O)CCCCCCCCCCCCCCCCCCC(=O)O)C(=O)O)C(=O)O)C(=O)N[C@@H](CC(N)=O)C(=O)N[C@@H]([C@@H](C)O)C(=O)N[C@@H](C)C(=O)N[C@@H]([C@@H](C)O)C(=O)N1)[C@@H](C)O)C(=O)N1CCC[C@H]1C(=O)N[C@@H](CO)C(=O)N[C@@H](CO)C(=O)N[C@H](C(=O)N[C@@H](CC(N)=O)C(=O)N[C@H](C(=O)NCC(=O)N1CCC[C@H]1C(=O)N[C@@H](CCC(=O)O)C(=O)N[C@H](C(=O)N1CCC[C@H]1C(N)=O)[C@@H](C)O)C(C)C)[C@@H](C)O)
4,843 pM,K([γGlu-γGlu-C20 diacid])CNTATCATQRLADFLRHSSPNFGAIPSSTNVGPETY-NH2 (disulfide 2-7)
5,7050 pM,K([γGlu-γGlu-C20 diacid])CNTATCATQRLAEFLRHSSPNFGAIPSSTNVGHETY-NH2 (disulfide 2-7; N-terminus assumed; SMILES CC[C@H](C)[C@H](NC(=O)[C@H](C)NC(=O)CNC(=O)[C@H](Cc1ccccc1)NC(=O)[C@H](CC(N)=O)NC(=O)[C@@H]1CCCN1C(=O)[C@H](CO)NC(=O)[C@H](CO)NC(=O)[C@H](Cc1c[nH]cn1)NC(=O)[C@H](CCCNC(=N)N)NC(=O)[C@H](CC(C)C)NC(=O)[C@H](Cc1ccccc1)NC(=O)[C@H](CCC(=O)O)NC(=O)[C@H](C)NC(=O)[C@H](CC(C)C)NC(=O)[C@H](CCCNC(=N)N)NC(=O)[C@H](CCC(N)=O)NC(=O)[C@@H](NC(=O)[C@H](C)NC(=O)[C@@H]1CSSC[C@H](NC(=O)[C@@H](N)CCCCNC(=O)CC[C@H](NC(=O)CC[C@H](NC(=O)CCCCCCCCCCCCCCCCCCC(=O)O)C(=O)O)C(=O)O)C(=O)N[C@@H](CC(N)=O)C(=O)N[C@@H]([C@@H](C)O)C(=O)N[C@@H](C)C(=O)N[C@@H]([C@@H](C)O)C(=O)N1)[C@@H](C)O)C(=O)N1CCC[C@H]1C(=O)N[C@@H](CO)C(=O)N[C@@H](CO)C(=O)N[C@H](C(=O)N[C@@H](CC(N)=O)C(=O)N[C@H](C(=O)NCC(=O)N[C@@H](Cc1c[nH]cn1)C(=O)N[C@@H](CCC(=O)O)C(=O)N[C@H](C(=O)N[C@@H](Cc1ccc(O)cc1)C(N)=O)[C@@H](C)O)C(C)C)[C@@H](C)O)
